Measurements as given in publication PMC12205653 (The Journal of Biological Chemistry, 2025).
One block for each molecule: values may come before it.

How the values were obtained:
[1] = molecular target: endogenous CAPN2 (human (endogenous in MDA-MB-231)) (UniProt P17655)
His10-LgBiT-CAPNS1 [2] = molecular target: T1, His10-LgBiT-CAPNS1 (human, UniProt P04632 60-268); assay: split reporter (BiFC, NanoBiT); fixed 100 nM LgBiT-CAPNS1, increasing SmBiT component, 5 mM Ca2+; estimated KD from the inflection of the plot assuming first-order kinetics; for CAPNS1 with CAPNS1: dimer to monomers; conditions: both partners purified
T1 construct: CAPNS1, calpain small regulatory subunit, human, penta-EF-hand domain PEF(S), residues 60-268; Cloned in pET16b; also called CAPNS1 PEF(S) biosensor component; source: E. coli BL21 RIPL; not shown: His10, N-terminal, kept; LgBiT, N-terminal, kept
T1 sequence (looked up): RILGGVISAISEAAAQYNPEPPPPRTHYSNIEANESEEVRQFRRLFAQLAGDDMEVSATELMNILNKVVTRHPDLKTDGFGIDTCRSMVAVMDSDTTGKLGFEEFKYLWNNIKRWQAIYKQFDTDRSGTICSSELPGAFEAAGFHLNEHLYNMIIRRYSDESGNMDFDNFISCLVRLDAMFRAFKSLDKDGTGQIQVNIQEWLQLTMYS

[3] = molecular target: T2, LgBiT-CAPNS1 (mammalian expression construct) (human, UniProt P04632 60-268); assay: split reporter (BiFC, NanoBiT); LgBiT and SmBiT fusions coexpressed pairwise in transfected HEK293T cells; luciferase signal of cell lysates as fold change over a LgBiT-alone control; conditions: partners not purified
T2 construct: CAPNS1, human, PEF(S) domain, residues 60-268, in pBiT1.1-N (TK/LgBiT); source: HEK293T, transfected, in lysate; not shown: LgBiT, N-terminal, kept
T2 sequence (looked up): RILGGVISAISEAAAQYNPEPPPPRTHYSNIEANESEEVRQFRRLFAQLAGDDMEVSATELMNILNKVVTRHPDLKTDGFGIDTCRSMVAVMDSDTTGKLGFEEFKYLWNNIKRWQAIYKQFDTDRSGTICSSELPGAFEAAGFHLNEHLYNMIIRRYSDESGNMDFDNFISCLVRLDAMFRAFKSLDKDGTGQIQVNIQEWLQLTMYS

His10-LgBiT-CAPNS1 [4] = molecular target: T1, His10-LgBiT-CAPNS1; assay: split reporter (BiFC, NanoBiT); crude bacterial lysates with approximately equimolar biosensor components; 5 mM Mg2+, no Ca2+; fold over His10-LgBiT-CAPNS1 alone; conditions: partners not purified
His10-LgBiT-CAPNS1 [5] = molecular target: T1, His10-LgBiT-CAPNS1; assay: split reporter (BiFC, NanoBiT); fixed 100 nM LgBiT-CAPNS1, increasing SmBiT-CAPN1/2, 5 mM Mg2+ in place of Ca2+; estimated KD from the inflection of the plot assuming first-order kinetics; conditions: both partners purified

Sequence of endogenous CAPN2 (human (endogenous in MDA-MB-231)) (P17655 20-700): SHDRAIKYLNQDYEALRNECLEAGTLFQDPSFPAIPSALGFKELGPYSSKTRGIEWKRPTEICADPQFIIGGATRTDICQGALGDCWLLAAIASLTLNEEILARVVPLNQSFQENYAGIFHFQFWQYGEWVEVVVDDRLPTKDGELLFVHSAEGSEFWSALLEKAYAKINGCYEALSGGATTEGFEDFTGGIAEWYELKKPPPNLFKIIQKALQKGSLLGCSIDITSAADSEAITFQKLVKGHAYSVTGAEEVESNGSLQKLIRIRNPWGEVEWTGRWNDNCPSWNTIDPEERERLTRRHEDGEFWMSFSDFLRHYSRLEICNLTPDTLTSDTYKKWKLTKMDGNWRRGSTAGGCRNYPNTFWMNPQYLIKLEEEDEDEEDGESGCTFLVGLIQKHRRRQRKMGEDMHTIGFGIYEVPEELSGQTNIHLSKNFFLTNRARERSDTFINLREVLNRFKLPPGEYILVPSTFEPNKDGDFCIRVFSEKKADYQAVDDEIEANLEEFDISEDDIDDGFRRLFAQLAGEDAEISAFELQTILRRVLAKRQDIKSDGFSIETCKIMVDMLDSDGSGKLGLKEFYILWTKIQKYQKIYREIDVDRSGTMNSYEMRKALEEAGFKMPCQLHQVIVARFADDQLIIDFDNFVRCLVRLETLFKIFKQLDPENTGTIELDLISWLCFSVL

calpain-2 casein proteolytic activity (zymography of cell lysates), standardized to CAPN2 expression, against WT CAPNS1 [1]: 51 % of the WT
Molecule: recombinant CAPNS1 Q263R (pMSCV_CAPNS1) (from UniProt P04632 1-268) (natural protein)

fold increase of bioluminescence over LgBiT-CAPNS1 alone [3]: ~400 fold
B2: SmBiT-CAPN1 (mammalian expression construct) (domain or fragment, human, UniProt P07384 538-714, looked up)
chain: LSEEEIDENFKALFRQLAGEDMEISVKELRTILNRIISKHKDLRTKGFSLESCRSMVNLMDRDGNGKLGLVEFNILWNRIRNYLSIFRKFDLDKSGSMSAYEMRMAIESAGFKLNKKLYELIITRYSEPDLAVDFDNFVCCLVRLETMFRFFKTLDTDLDGVVTFDLFKWLQLTMFA
notes: CAPN1, human, PEF(L) domain, residues 538-714, in pBiT2.1-N (TK/SmBiT); source: HEK293T, transfected, in lysate; not shown: SmBiT, N-terminal, kept

The next lines start with the molecule.

B1: His6-MBP-SmBiT-CAPNS1 (domain or fragment, human, UniProt P04632 60-268, looked up)
chain: RILGGVISAISEAAAQYNPEPPPPRTHYSNIEANESEEVRQFRRLFAQLAGDDMEVSATELMNILNKVVTRHPDLKTDGFGIDTCRSMVAVMDSDTTGKLGFEEFKYLWNNIKRWQAIYKQFDTDRSGTICSSELPGAFEAAGFHLNEHLYNMIIRRYSDESGNMDFDNFISCLVRLDAMFRAFKSLDKDGTGQIQVNIQEWLQLTMYS
notes: CAPNS1, calpain small regulatory subunit, human, penta-EF-hand domain PEF(S), residues 60-268; Same CAPNS1 stretch as m1 with other tags; m4 with m1 measures the PEF(S):PEF(S) homodimer of CAPNS1; not shown: His6, N-terminal, kept; MBP, N-terminal, kept; SmBiT, N-terminal, kept
Kd (His10-LgBiT-CAPNS1 [2]): 635 nM

B3: His6-MBP-SmBiT-CAPN1 (domain or fragment, human, UniProt P07384 538-714, looked up)
chain: LSEEEIDENFKALFRQLAGEDMEISVKELRTILNRIISKHKDLRTKGFSLESCRSMVNLMDRDGNGKLGLVEFNILWNRIRNYLSIFRKFDLDKSGSMSAYEMRMAIESAGFKLNKKLYELIITRYSEPDLAVDFDNFVCCLVRLETMFRFFKTLDTDLDGVVTFDLFKWLQLTMFA
notes: CAPN1, calpain-1 catalytic subunit, human, penta-EF-hand domain PEF(L), residues 538-714; Cloned in pHT29 (modified pET16b); also called CAPN1 PEF(L) biosensor component; source: E. coli BL21 RIPL; not shown: His6, N-terminal, kept; MBP, N-terminal, kept; SmBiT, N-terminal, kept
fold signal over LgBiT-CAPNS1 alone (His10-LgBiT-CAPNS1 [4]): 47 fold
Kd (His10-LgBiT-CAPNS1 [2]): 185 nM
Kd (His10-LgBiT-CAPNS1 [5]): 362 nM
